Assay results taken from patent publication US20030207791A1, “Materials and methods relating to the treatment of leukaemias” (priority 2000, published 2003).

T1: GST-NCoR (Mus musculus, UniProt Q60974)
T1 construct: made in house
T1 sequence (Q60974 1782-2453): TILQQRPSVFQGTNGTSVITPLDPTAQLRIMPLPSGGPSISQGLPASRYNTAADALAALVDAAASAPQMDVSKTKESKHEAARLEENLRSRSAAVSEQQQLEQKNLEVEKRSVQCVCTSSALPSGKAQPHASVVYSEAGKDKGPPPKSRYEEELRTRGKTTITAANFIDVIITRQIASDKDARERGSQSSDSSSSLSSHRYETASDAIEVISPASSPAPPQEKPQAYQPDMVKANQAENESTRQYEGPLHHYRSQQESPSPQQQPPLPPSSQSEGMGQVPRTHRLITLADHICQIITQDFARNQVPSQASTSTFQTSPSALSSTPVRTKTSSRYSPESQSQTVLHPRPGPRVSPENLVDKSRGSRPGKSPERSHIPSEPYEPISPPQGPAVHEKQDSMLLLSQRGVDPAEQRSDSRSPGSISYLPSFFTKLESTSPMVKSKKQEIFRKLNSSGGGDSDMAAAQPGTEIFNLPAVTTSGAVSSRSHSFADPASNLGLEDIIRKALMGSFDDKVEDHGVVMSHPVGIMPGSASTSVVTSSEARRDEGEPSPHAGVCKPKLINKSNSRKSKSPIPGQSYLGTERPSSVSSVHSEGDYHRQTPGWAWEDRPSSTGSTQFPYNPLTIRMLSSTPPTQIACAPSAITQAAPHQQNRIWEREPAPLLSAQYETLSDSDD


Key:
GST-NCoR = molecular target: T1, GST-NCoR; assay: GST-NCoR pull-down assay with in vitro translated 35S labelled proteins; assay type: binding; conditions: increasing amounts of GST-NCoR
Description: FIG. 1. Enhanced recruitment of NCoR by PML-RAR is due to the coiled coil region of PML. Increasing amounts of GST -NCoR (from 150 ng to 10 μg) coupled to agarose beads were incubated with the indicated in vitro translated, ^35-S labelled proteins. On the left, a schematic representation of the in vitro translated products, with the tripartite motif of PML highlighted (R, RING finger; B, B boxes; CC, coiled coil). The input lanes are loaded with the same amounts used in the pull-down experiments.
Recruitment of the NCoR-HDAC complex is crucial for the transforming potential of PML-RAR. At low concentrations of RA (1-100 nM), the stability of the PML-RAR-NCoR complex is higher than that of the RAR-NCoR complex (Grignani et al., 1998; He et al., 1998; Lin et al., 1998). […] Pull-down assays were performed by incubation of in vitro translated, ^35S labelled PML-RAR or RAR with GST-NCoR coupled to agarose beads.
GST-NCoR (1782-2453) or GST-NCoR (RDIII) purification and in vitro interaction experiments were performed as described, incubating the indicated amounts of GST-NCoR attached to a constant amount of glutathione-agarose beads in the presence of the appropriate ^35-S labelled, in vitro translated proteins(Gelmetti et al., 1998; Grignani et al., 1998; Zamir et al., 1996). The input lanes represent 100% of the total. Coimmunoprecipitation experiments were performed as described(Gelmetti et al., 1998), using extracts from transiently transfected COS-1 cells, or in vitro translated products.

[1] = test system: RARE-G5-TATA reporter (GAL4-VP16 driven transcription); assay: Transcriptional repression of GAL4-VP16 activation, RARE-G5-TATA reporter, transfected HeLa cells; assay type: cell-based
Description: FIG. 2. Role of the coiled coil of PML in the altered transcriptional properties of PML-RAR (A): Transcriptional repression by RAR and fusion proteins. Hela cells were co-transfected with the RARE-G5-TATA reporter in the absence (C) or presence of increasing amounts (50, 100, 250, 1000 ng) of the indicated expression vectors and then harvested 48 hours after transfection. Levels of expression of RAR and fusion proteins after transfection are shown in (C). (B) RARE and NCoR dependent transcriptional repression by RAR and fusion proteins. Hela cells were co-transfected with the RARE-G5-TATA or the G5-TATA, reporters and 1 μg of control expression vector (C), RAR (R), PML-RAR (P/R) and their respective AHT derivatives, as indicated. (D) RA sensitivity of RAR and fusion proteins. Cells were co-transfected with 500 ng of the indicated expression vectors. 24 hours after transfection, RA was added at the following concentrations: 1, 10, 100 nM, 1, 10 μM, and cells were harvested after additional 24 hours.
To test this hypothesis, the inventors devised an artificial, reporter system to measure transcriptional repression by RAR and chimeric proteins. The RARE-G5-TATA reporter construct has five GAL4 response elements fused to a minimal promoter region: upstream of the GAL4 sites, a RA responsive element (RARE) allows binding of RAR (or fusion proteins). […] RAR over-expression led to decrease of GAL4-VP16 activation, with 30-40% repression observed with the maximal amount of co-transfected RAR expression vector (1 μg, FIG. 2A), while it exerted no effect on the GAL4-VP16-mediated activation of a cognate promoter lacking the RARE (FIG. 2B). A RAR construct carrying the AHT mutation, which abrogates NCoR binding (Horlein et al., 1995), was unable to prevent activation of the RARE-G5-TATA promoter by GAL4-VP16 (FIG. 2B).
Next, the inventors tested the transcriptional regulatory functions of PML-RAR (or derivatives). […] At the maximal concentration tested (1 μg), the inventors observed 80-90% repression with PML-RAR and 30-40% with RAR (FIG. 2A).
Transient transfection of HeLa, NIH 3T3, SAOS and C33A cells was performed by calcium phosphate as described (Lillie and Green, 1989; Minucci et al., 1994). p53-/- MEFs were transiently transfected by lipofection as described (Pearson et al., 2000). Light units were normalized to expression of a co-transfected β-galactosidase expression plasmid. Results are presented as the mean+standard deviations of at least three independent experiments.

Row | Molecule | binding to GST-NCoR (GST-NCoR) | repression of GAL4-VP16 activation ([1]; maximal amount of expression vector, 1 μg) | capacity to repress GAL4-VP16 driven transcription [1]
1 | PML-RAR: leukaemia-associated chimeric transcription factor, fusion of PML and RAR (protein) MEPAPARSPRPQQDPARPQEPTMPPPETPSEGRQPSPSPSPTERAPASEEEFQFLRCQQCQAEAKCPKLLPCLHTLCSGCLEASGMQCPICQAPWPLGADTPALDNVFFESLQRRLSVYRQIVDAQAVCTRCKESADFWCFECEQLLCAKCFEAHQWFLKHEARPLAELRNQSVREFLDGTRKTNNIFCSNPNHRTPTLTSIYCRGCSKPLCCSCALLDSSHSELKCDISAEIQQRQEELDAMTQALQEQDSAFGAVHAQMHAAVGQLGRARAETEELIRERVRQVVAHVRAQERELLEAVDARYQRDYEEMASRLGRLDAVLQRIRTGSALVQRMKCYASDQEVLDMHGFLRQALCRLRQEEPQSLQAAVRTDGFDEFKVRLQDLSSCITQGKDAAVSKKASPEAASTPRDPIDVDLPEEAERVKAQVQALGLAEAQPMAVVQSVPGAHPVPVYAFSIKGPSYGEDVSNTTTAQKRKCSQTQCPRKVIKMESEEGKEARLARSSPEQPRPSTSKAVSPPHLDGPPSPRSPVIGSEVFLPNSNHVASGAGEAIETQSSSSEEIVPSPPSPPPLPRIYKPCFVCQDKSSGYHYGVSACEGCKGFFRRSIQKNMVYTCHRDKNCIINKVTRNRCQYCRLQKCFEVGMSKESVRNDRNKKKKEVPKPECSESYTLTPEVGELIEKVRKAHQETFPALCQLGKYTTNNSSEQRVSLDIDLWDKFSELSTKCIIKTVEFAKQLPGFTTLTIADQITLLKAACLDILILRICTRYTPEQDTMTFSDGLTLNRTQMHNAGFGPLTDLVFAFANQLLPLEMDDAETGLLSAICLICGDRQDLEQPDRVDMLQEPLLEALKVYVRKRRPSRPHMFPKMLMKITDLRSISAKGAERVITLKMEIPGSMPPLIQEMLENSEGLDTLSGQPGGGGRDGGGLAPPPGSCSPSLSPSSNRSSPATHSP | bound specifically to the beads even at the lowest amounts of GST-NCoR tested | 80-90% | –
2 | p53-RAR: RAR fused C-terminally to the tetramerization domain present in p53 (protein) GEYFTLQIRGRERFEMFRELNEALELKDAQAGMASNSSSCPTPGGGHLNGYPVPPYAFFFPPMLGGLSPPGALTTLQHQLPVSGYSTPSPATIETQSSSSEEIVPSPPSPPPLPRIYKPCFVCQDKSSGYHYGVSACEGCKGFFRRSIQKNMVYTCHRDKNCIINKVTRNRCQYCRLQKCFEVGMSKESVRNDRNKKKKEVPKPECSESYTLTPEVGELIEKVRKAHQETFPALCQLGKYTTNNSSEQRVSLDIDLWDKFSELSTKCIIKTVEFAKQLPGFTTLTIADQITLLKAACLDILILRICTRYTPEQDTMTFSDGLTLNRTQMHNAGFGPLTDLVFAFANQLLPLEMDDAETGLLSAICLICGDRQDLEQPDRVDMLQEPLLEALKVYVRKRRPSRPHMFPKMLMKITDLRSISAKGAERVITLKMEIPGSMPPLIQEMLENSEGLDTLSGQPGGGGRDGGGLAPPPGSCSPSLSPSSNRSSPATHSP | bound NCoR even at the lowest amounts of GST-NCoR tested | – | as strongly as PML-RAR
